# Assay results: patent US10888547B2, “Amorphous and a crystalline form of genz 112638 hemitartrate as inhibitor of glucosylceramide synthase” (Genzyme Corporation, priority 2009, dated 2021)
# B1: ERT: enzyme replacement therapy in Fabry-Rag mice: recombinant human alpha-galactosidase A (Genzyme Corp.), 1 mg/kg intravenous (protein, UniProt P06280 32-429, looked up)
# Alpha-galactosidase A: LDNGLARTPTMGWLHWERFMCNLDCQEEPDSCISEKLFMEMAELMVSEGWKDAGYEYLCIDDCWMAPQRDSEGRLQADPQRFPHGIRQLANYVHSKGLKLGIYADVGNKTCAGFPGSFGYYDIDAQTFADWGVDLLKFDGCYCDSLENLADGYKHMSLALNRTGRSIVYSCEWPLYMWPFQKPNYTEIRQYCNHWRNFADIDDSWKSIKSILDWTSFNQERIVDVAGPGGWNDPDMLVIGNFGLSWNQQVTQMALWAIMAAPLFMSNDLRHISPQAKALLQDKDVIAINQDPLGKQGYQLRQGDNFEVWERPLSGLAWAVAMINRQEIGGPRSYTIAVASLGKGVACNPACFITQLLPVKRKLGFYEWTSRLRSHINPTGTVLLQLENTMQMSLKDLL
# B2: recombinant glucocerebrosidase: recombinant human glucocerebrosidase (Genzyme Corp.), enzyme therapy given to Gaucher mice (protein, UniProt P04062 40-536, looked up)
# Lysosomal acid …: ARPCIPKSFGYSSVVCVCNATYCDSFDPPTFPALGTFSRYESTRSGRRMELSMGPIQANHTGTGLLLTLQPEQKFQKVKGFGGAMTDAAALNILALSPPAQNLLLKSYFSEEGIGYNIIRVPMASCDFSIRTYTYADTPDDFQLHNFSLPEEDTKLKIPLIHRALQLAQRPVSLLASPWTSPTWLKTNGAVNGKGSLKGQPGDIYHQTWARYFVKFLDAYAEHKLQFWAVTAENEPSAGLLSGYPFQCLGFTPEHQRDFIARDLGPTLANSTHHNVRLLMLDDQRLLLPHWAKVVLTDPEAAKYVHGIAVHWYLDFLAPAKATLGETHRLFPNTMLFASEACVGSKFWEQSVRLGSWDRGMQYSHSIITNLLYHVVGWTDWNLALNPEGGPNWVRNFVDSPIIVDITKDTFYKQPMFYHLGHFSKFIPEGSQRVGLVASQKNDLDAVALMHPDGSAVVVVLNRSSKDVPLTIKDPAVGFLETISPGYSIHTYLWRRQ
# What was measured:
# Aqueous solubility = assay type: physicochemical; conditions: in water
# [1] = Hygroscopicity of salts and free base; assay type: physicochemical
# cytochrome P450 enzymes = assay: Hepatic metabolism by cytochrome P450 enzymes; assay type: in vitro ADME, human; conditions: liver
# Text: Cytochrome P450s (“CYPs”) are the principal hepatic xenobiotic metabolizing enzymes. There are eleven xenobiotic-metabolizing cytochrome P450s expressed in a typical human liver (i.e., CYP1A2, CYP2A6, CYP2B6, CYP2C8/9/18/19, CYP2D6, CYP2E1 and CYP3A4/5). […] The level of activity of P450 enzymes differs according to the individual. For example, individuals can be classified as poor, intermediate and extensive/ultra rapid P450 metabolizers. Because lower levels of P450 activity in an individual can give rise to drug/drug interactions (“DDI”), another embodiment of the invention is to determine whether the subject is a poor, intermediate and extensive/ultra rapid P450 metabolizer. […] The dose can raised incrementally and the subject retested once, twice, three, four or as many times as necessary to achieve an adjusted effective dose.
# Fabry-Rag mice = assay: Combination ERT/SRT therapy of Fabry-Rag mice; assay type: in vivo, mouse; conditions: ERT 1 mg/kg α-galactosidase A i.v., SRT 300 mg/kg daily in diet
# Protocol: For the combination therapy studies, Fabry-Rag mice were put on study at 3 months old (treatment model). Mice in group A received intravenous injections of recombinant human alpha-galactosidase A (Genzyme Corp.) at a dose of 1 mg/kg every 2 months (i.e. 3, 5, 7 and 9 months old). Group B received the same intravenous enzyme doses plus it received Formula (I) Hemitartrate (Genzyme Corp., Cambridge, Mass.) as a component of the pellet food diet. The drug was formulated at 0.15% (w/w) in standard 5053 mouse chow (TestDiet, Richmond, Ind.) and provided ad libitum. […] Group C received enzyme injections every 4 months (i.e. 3 and 7 months old) and was on the same drug-in-food diet as group B. Group D received only the drug-in-food diet (same as groups B and C). Group E was untreated Fabry-Rag mice and group F were wild-type controls.
# Quantitation of GL-3 was by Tandem Mass Spectrometry essentially as for GL-1.
# Hot plate Assay was performed as described previously (Ziegler, R J et al. Molec. Ther. 15(3), 492-500 (2007).
# Beginning at three-months of age, the mice were subjected to a schedule of behavioral tests (i.e. hot-plate assay) and biochemical tests (i.e., GL-3 level analysis in tissues/blood/urine), as shown in FIG. 10.
# [2] = system: Gaucher mice (D409V/null); assay: Glucocerebrosidase dosing regimen for debulking GL1 in Gaucher mice; assay type: in vivo, mouse; conditions: for reduction of GL1 levels in the liver: 7 days after last infusion
# Protocol: To investigate the relative merits of combination and monotherapy with either enzyme or substrate reduction therapy, the enzyme regimen that maximally depleted GL1 levels in the visceral organs of Gaucher mice was first determined. Three month-old Gaucher mice (D409V/null) were intravenously administered 2, 4 or 8 doses of 10 mg/kg recombinant human glucocerebrosidase. The mice that were treated with 2 or 4 doses of the enzyme received drug infusions every 3 days while those that were treated with 8 doses received the enzyme every 2 days. The use of a shorter time interval between infusions in animals that received 8 treatments was designed to minimize the potential impact of any immune response to the administered human enzyme. The animals were killed 7 days following the last enzyme infusion and the amount of GL1 remaining in their livers, spleens, and lungs were measured.
# [3] = system: Gaucher mice (D409V/null); assay: Separate and sequential enzyme and substrate reduction therapy in Gaucher mice; assay type: in vivo, mouse
# Text: Procedures involving animals were reviewed and approved by the Institutional Animal Care and Use Committee (IACUC) at Genzyme Corporation following the guidelines issued by the Association for Assessment and Accreditation of Laboratory Animal Care (AAALAC). […] The study had 6 groups of mice with group A being sacrificed after 2 weeks to provide baseline levels of tissue glucosylceramide. Groups B, C, and D all received recombinant human glucocerebrosidase (Genzyme Corp., Cambridge, Mass.) (10 mg/kg) intravenously via a tail-vein (100 μL) every 2 days for a total of 8 injections. Group B was sacrificed at the end of this regimen (at the same time as group A) to provide enzyme-reduced levels of tissue glucosylceramide. Groups D and E were both fed Formula (I) Hemitartrate (Genzyme Corp., Cambridge, Mass.) as a component of the pellet food diet. The drug was formulated at 0.075% (w/w) in standard 5053 mouse chow (TestDiet, Richmond, Ind.) and provided ad libitum. […] Group F received no treatment and was sacrificed along with groups C, D and E 12 weeks after the start of the study. Food consumption and mouse weights were monitored three times per week to determine drug intake and the potential impact of the drug on overall health. Animals were killed by carbon dioxide inhalation and their tissues harvested immediately. Half of each tissue was snap frozen on dry ice and stored at −80° C. until ready for further processing. The other half was processed for histological analysis.
# Glucosylceramide levels were quantified by mass spectrometry as described previously (see K. McEachern, et al., J. Gene. Med. 8 (2006) 719-729; T. Doering, J. Biol. Chem. 274 (1999) 11038-11045, the entire teachings of both are incorporated herein by reference). A known mass of tissue was homogenized in 2:1 (v/v) chloroform:methanol and incubated at 37° C. for 15 min. Samples were centrifuged and the supernatants were extracted with 0.2 volumes of water overnight at 4° C. The samples were centrifuged, the aqueous phase was discarded, and the organic phase was dried down to a film under nitrogen. For electrospray ionization mass spectrometry (ESI/MS) analysis, tissue samples were reconstituted to the equivalent of […] original tissue weight in 1 ml chloroform:methanol (2:1, v/v) and vortexed for 5 min. Aliquots (40 μL) of each sample were delivered to Waters total recovery vials and 50 μL of a 10 μg/mL d3-C16-GL-1 internal standard (Matreya, Inc., Pleasant Gap, Pa.) was added. Samples were dried under nitrogen and reconstituted with 200 μL of 1:4 (v/v) DMSO:methanol. ESI/MS analysis of glucosylceramides of different carbon chain lengths was performed on a Waters alliance HPLC (Separation Module 2695) coupled to a Micromass Quattro Micro system equipped with an electrospray ion source. Lipid extract samples (20 μL) were injected onto a C8 column ([…] i.d; Phenomenex, Torrance, Calif.) at 45° C. and eluted with a gradient of 50 to 100% acetonitrile (2 mM ammonium acetate, 0.1% formic acid) at 0.5 mL/min. The first 0.5 min. was held at 50% organic and then quickly switched to 100% for the final 3.5 min. The source temperature was held constant at 150° C. and nitrogen was used as the desolvation gas at a flow rate of 670 L/h. The capillary voltage was maintained at 3.80 KV with a cone voltage of 23 V, while the dwell time for each ion species was 100 ms. Spectra were acquired by the MRM mode to monitor eight dominant isoforms (C16:0, C18:0, C20:0, C22:1, C22:0, C22:1-OH, C24:1, and C24:0). Quantitation of glucosylceramide was based on the sum of these eight isoforms relative to the internal standard, with a calibration curve ranging from 0.1 to 10 μg/mL.
# For histological analysis, tissues were fixed in zinc formalin (Electron Microscopy Sciences, Hatfield, Pa.) at room temperature for 24 h, then stored in PBS at 4° C. until ready for further processing. […]
molecule,measurement,setting,value
CCCCCCCC(=O)N[C@H](CN1CCCC1)[C@H](O)c1ccc2c(c1)OCCO2 [Formula (I) Free Base],Aqueous solubility,Aqueous solubility,40 µg/mL
same,Hygroscopicity (40° C./75% RH),[1]; 40° C./75% RH,None
same,primary cytochrome P450 isoforms responsible for de-toxifying the compound,cytochrome P450 enzymes,CYP2D6 and CYP3A4
CCCCCCCC(=O)N[C@H](CN1CCCC1)[C@H](O)c1ccc2c(c1)OCCO2 [hydrochloric acid (1:1)],hygroscopicity of the solid salt,"[1]; salt screen, Example 1",hygroscopic
B1,onset of heat-insensitivity,Fabry-Rag mice,not
same,urine GL-3 levels,Fabry-Rag mice,does not
same,blood GL-3 levels,Fabry-Rag mice; from 3 months of age,reduces
B2,splenic GL1 levels versus untreated controls,[2]; 2 doses of 10 mg/kg i.v.,did not significantly alter
same,reduction of GL1 levels in the liver,[2]; 2 doses of 10 mg/kg i.v. every 3 days,50%
same,reduction of splenic GL1 levels,[2]; 4 or 8 doses of 10 mg/kg i.v.,about 50%
same,reduction of GL1 levels in the liver,[2]; 4 or 8 doses of 10 mg/kg i.v.,approximately 75%
same,"lung GL1, reduction to % of untreated control",[2]; 8 doses of 10 mg/kg i.v. every 2 days,approximately 60%
same,"liver histopathology, CD68-positive Gaucher cells","[3]; 2 weeks enzyme, then 10 weeks without further treatment",re-emergence of Gaucher cells
same,"liver histopathology, CD68-positive Gaucher cells",[3]; enzyme over a period of 2 weeks,substantial clearance of the lipid
same,stored GL1 levels cleared from the liver,[3]; group B: 8 doses of 10 mg/kg enzyme over 2 weeks,Approximately 80%
same,reduction of splenic GL1 levels,[3]; group B: enzyme alone for 2 weeks,approximately 60%
same,reduction in substrate (GL1) levels in the lung,[3]; group B: enzyme for 2 weeks,30%
same,splenic GL1 levels versus untreated control (F),"[3]; group C: 2 weeks enzyme, then 10 weeks without further intervention",not significantly different
same,liver GL1 levels versus untreated controls (F),"[3]; group C: 2 weeks enzyme, then 10 weeks without further treatment",not significantly different
same,lung GL1 levels versus untreated levels (F),"[3]; group C: 2 weeks enzyme, then normal chow for 10 weeks",not significantly different
